# Numbering of substitutions follows the chain as printed. In names and notes the source's numbering stands. Where two headings read alike, the source gives them in different places.
# T1: CD20 (Homo sapiens, UniProt P11836)
# T1 sequence (P11836 1-297): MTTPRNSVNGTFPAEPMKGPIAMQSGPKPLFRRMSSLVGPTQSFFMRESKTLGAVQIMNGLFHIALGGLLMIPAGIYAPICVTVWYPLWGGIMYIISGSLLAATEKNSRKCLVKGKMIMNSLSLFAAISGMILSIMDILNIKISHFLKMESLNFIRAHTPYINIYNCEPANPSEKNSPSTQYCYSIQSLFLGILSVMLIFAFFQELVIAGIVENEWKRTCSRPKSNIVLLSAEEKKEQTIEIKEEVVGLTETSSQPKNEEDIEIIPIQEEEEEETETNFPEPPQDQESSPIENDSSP
# B1: AME133 (protein)
# light: EIVLTQSPGTLSLSPGERATLSCRASSSVPYIHWYQQKPGQAPRLLIYATSALASGIPDRFSGSGSGTDFTLTISRLEPEDFAVYYCQQWLSNPPTFGQGTKLEIKRTVAAPSVFIFPPSDEQLKSGTASVVCLLNNFYPREAKVQWKVDNALQSGNSQESVTEQDSKDSTYSLSSTLTLSKADYEKHKVYACEVTHQGLSSPVTKSFNRGEC
# heavy: EVQLVQSGAEVKKPGESLKISCKGSGRTFTSYNMHWVRQMPGKGLEWMGAIYPLTGDTSYNQKSKLQVTISADKSISTAYLQWSSLKASDTAMYYCARSTYVGGDWQFDVWGKGTTVTVSSASTKGPSVFPLAPSSKSTSGGTAALGCLVKDYFPEPVTVSWNSGALTSGVHTFPAVLQSSGLYSLSSVVTVPSSSLGTQTYICNVNHKPSNTKVDKKAEPKSCDKTHTCPPCPKLEDDIIIATKNGKVRGMNLTVFGGTVTAFLGIPYAQPPLGRLRFKKPQSLTKWSDIWNATKYANSCCQNIDQSFPGFFGSEMWNPNTDLSEDCLYLNVWIPAPKPKNATVLIWIYGGGFQTGTSSLHVYDGKFLARVERVIVVSMNYRVGALGFLALPGNPEAPGNMGLFDQQLALQWVQKNIAAFGGNPKSVTLFGESAGAASVSLHLLSPGSHSLFTRAILQSGSANAPWAVTSLYEARNRTLNLAKLTGCSRENETEIIKCLRNKDPQEILLNEAFVVPYGTNLSVNFGPTVDGDFLTDMPDILLELGQFKKTQILVGVNKDEGTAFLAYGAPGFSKDNNSIITRKEFQEGLKIFFPGVSEFGKESILFHYTDWVDDQRPENYREALGDVVGDYNFICPALEFTKKFSEWGNNAFFYYFEHRSSKLPWPEWMGVMHGYEIEFVFGLPLERRDNYTKAEEILSRSIVKRWANFAKYGNPNETQNNSTSWPVFKSTEQKYLTLNTESTRIMTKLRAQQCRFWTSFFPKV
# modifications: Synthetic butyrylcholinesterase variant; MISC_FEATURE (1)..(213): Anti-CD20 antibody light chain; MISC_FEATURE (1)..(765): Anti-CD20 antibody VH-CH1 hinge cys L530 BChE.4-1 heavy chain construct
# B2: wild-type butyrylcholinesterase (protein, UniProt P06276 29-602, looked up)
# Cholinesterase: EDDIIIATKNGKVRGMNLTVFGGTVTAFLGIPYAQPPLGRLRFKKPQSLTKWSDIWNATKYANSCCQNIDQSFPGFHGSEMWNPNTDLSEDCLYLNVWIPAPKPKNATVLIWIYGGGFQTGTSSLHVYDGKFLARVERVIVVSMNYRVGALGFLALPGNPEAPGNMGLFDQQLALQWVQKNIAAFGGNPKSVTLFGESAGAASVSLHLLSPGSHSLFTRAILQSGSFNAPWAVTSLYEARNRTLNLAKLTGCSRENETEIIKCLRNKDPQEILLNEAFVVPYGTPLSVNFGPTVDGDFLTDMPDILLELGQFKKTQILVGVNKDEGTAFLVYGAPGFSKDNNSIITRKEFQEGLKIFFPGVSEFGKESILFHYTDWVDDQRPENYREALGDVVGDYNFICPALEFTKKFSEWGNNAFFYYFEHRSSKLPWPEWMGVMHGYEIEFVFGLPLERRDNYTKAEEILSRSIVKRWANFAKYGNPNETQNNSTSWPVFKSTEQKYLTLNTESTRIMTKLRAQQCRFWTSFFPKVLEMTGNIDEAEWEWKAGFHRWNNYMMDWKNQFNDYTSKKESCVGL
# B3: 4-1 variant (protein)
# chain: B2 Cholinesterase with H77F, F227X, P285N, V331A
# modifications: Synthetic butyrylcholinesterase variant; VARIANT (77)..(77): H77F; VARIANT (227)..(227): Xaa = Ala; VARIANT (285)..(285): P285N; VARIANT (331)..(331): V331A
# B4: hCE-2 (protein, UniProt O00748 27-559, looked up)
# Cocaine esterase: QDSASPIRTTHTGQVLGSLVHVKGANAGVQTFLGIPFAKPPLGPLRFAPPEPPESWSGVRDGTTHPAMCLQDLTAVESEFLSQFNMTFPSDSMSEDCLYLSIYTPAHSHEGSNLPVMVWIHGGALVFGMASLYDGSMLAALENVVVVIIQYRLGVLGFFSTGDKHATGNWGYLDQVAALRWVQQNIAHFGGNPDRVTIFGESAGGTSVSSLVVSPISQGLFHGAIMESGVALLPGLIASSADVISTVVANLSACDQVDSEALVGCLRGKSKEEILAINKPFKMIPGVVDGVFLPRHPQELLASADFQPVPSIVGVNNNEFGWLIPKVMRIYDTQKEMDREASQAALQKMLTLLMLPPTFGDLLREEYIGDNGDPQTLQAQFQEMMADSMFVIPALQVAHFQCSRAPVYFYEFQHQPSWLKNIRPPHMKADHGDELPFVFRSFFGGNYIKFTEEEEQLSRKMMKYWANFARNGNPNGEGLPHWPLFDQEEQYLQLNLQPAVGRALKAHRLQFWKKALPQKIQELEEPEERHTEL
# What was measured:
# CD20 (human) = CD20 (human) (UniProt P11836); assay: method not stated
# [1] = patients treated with 200 mg/m2 CPT-11; for at least 24 hours; Ducreux et al.; cited from earlier work
# [2] = in vitro; Pavillard et al.; cited from earlier work
# [3] = cited from earlier work; for Km: Humerickhouse et al., read-out: Km (CPT-11 conversion)
# CD20 = biological target: T1, CD20; assay: affinity of monovalent AME133 Fab for CD20; format: binding
# From the text: AME133 is a humanized anti-CD20 with fully human germline framework regions shown in FIGS. 19 and 20 and set forth as SEQ ID NOS: 198 and 200, with corresponding nucleic acid sequences SEQ ID NOS: 197 and 199. This antibody was generated at Applied Molecular Evolution using the company's directed evolution strategies, and the monovalent Fab binds to CD20 with extremely high affinity (1×10^−9 M). Anti-CD20-BChE.4-1 (SEQ ID NO: 202) is composed of AME133 Fab fused at the C-terminal end of the CH1 heavy chain domain to the N-terminus of modified BChE variant L530 (SEQ ID NO: 204), which is a functional fragment of reference SEQ ID NO: 180. The BChE variant was truncated at amino acid 530 to abrogate its normal assembly into tetramers.
# [4] = CPT-11 hydrolysis by BChE variant 4-1, SN38 quantitated by reverse-phase HPLC, Km by Hofstee plot; format: biochemical; settings: for Km / fold increase in CPT-11 hydrolysis over wild-type BChE: 37° C., 24 hours; for Km: 1-80 μM CPT-11; for fold increase in CPT-11 hydrolysis over wild-type BChE: SN38 peak AUC; for fold improvement in the Km for CPT-11: over wild-type / native serum BChE
# Protocol: BChE plasmid variants were expressed transiently in the human embryonic kidney cell line 293T and assayed for activity at 72 hours post-transfection. Primary screening of variants was performed by indirect measurement of enzymatic activation of CPT-11 (FIG. 2) in SW48 colon carcinoma cell cytotoxicity assays. […] Functional hits identified in these assays were characterized by sequence analysis of the corresponding DNA from the original preps. […] Enzyme was incubated at 37° C. for 24 hours with CPT-11 over a range of concentrations from 1-80 μM. […] Velocity (v) is in light absorbance units at 540 nm. Substrate concentration [s] is μM CPT-11.
# Samples were acidified and resolved by reverse-phase HPLC on a NovaPak C18 column to separate SN38 from unactivated CPT-11. SN38 peak area under the curve (AUC) was used to compare CPT-11 activation by the wild-type enzyme to the optimized BChE.4-1 variant.
# [5] = o-nitrophenyl acetate (o-NPA) hydrolysis assay for carboxylesterase activity of antibody-captured butyrylcholinesterase variants; format: biochemical; settings: antibody capture/normalization
# Protocol: A modification of this assay that measures o-NPA activity of butyrylcholinesterase variants normalized by capturing with an anti-butyrylcholinesterase antibody was performed as described below.
# Protocol to Determine Carboxylesterase activity of Captured Butyrylcholinesterase by o-Nitrophenyl acetate:
# 1) Coat 96-well Immulon 2 plates with rabbit anti-human butyrylcholinesterase (Dako #A0032) at 10 mg/ml in PBS (100 ml/well) overnight at 4° C. 2) Remove coating solution and block plate with 3% BSA in PBS (250 ml/well) for 2 hours at room temperature. 3) Add 200 ml butyrylcholinesterase variant conditioned media and incubate at RT for 2 hrs. 4) Wash plate 3 times with 250 ml/well PBS. 5) Add 85 ml/well 0.1 M potassium phosphate pH 7.0 6) Add 13.6 mg o-NPA to 100 ml acetonitrile, mix to dissolve. Add 100 ml of this stock to 6.3 mls water and mix well. 7) Wash plate 3 times with PBS. 8) Add 15 ml of diluted o-NPA substrate. 9) Read absorbance at 405 nm.
# Conditioned media from butyrylcholinesterase variants that were transiently expressed in 293T cells was tested using the above described anti-butyrylcholinesterase antibody capture/normalization assay for carboxylesterase activity. […] The level of activity of the other variants can be compared to the level of activity of F227A. […] In order to determine the amount of variability present in the assay, several wells contained the same variant. […]
# [6] = HPLC assay of CPT-11 conversion to SN-38 by conditioned media of transiently expressed BChE variants; format: biochemical; settings: conditioned media
# Protocol: Butyrylcholinesterase variants were assayed for CPT-11 conversion activity using fluorescent High Performance Liquid Chromotography (HPLC) detection of SN-38 formation as described in Dodds and Rivory, Mol. Pharmacol. 56:1346-1353 (1999), which is incorporated herein by reference. Briefly, conditioned media from transiently expressed BChE variants were exposed to 20 mM CPT-11 for 72 hours at 37° C. and analyzed by HPLC for SN-38 formation (peak at about 4 minutes column retention time).
molecule,measurement,setting,value
AME133 Fab (humanized anti-CD20 with fully human germline framework regions),Kd,CD20 (human),1 nM
"CCc1c2c(nc3ccc(OC(=O)N4CCC(N5CCCCC5)CC4)cc13)-c1cc3c(c(=O)n1C2)COC(=O)[C@]3(O)CC [CPT-11, 7-ethyl-10-[4-(1-piperidino)-1-piperidine]carbonyloxycamptothecin]",plasma concentration of CPT-11,[1],above 0.1 μM
"CCc1c2c(nc3ccc(O)cc13)-c1cc3c(c(=O)n1C2)COC(=O)[C@]3(O)CC [SN38, 7-ethyl-10-hydroxycamptothecin]",fold more cytotoxic than CPT-11,[2],greater than 1000 fold
hCE-1,Km,[3],43 µM
B1,Kd,CD20,1 nM
B2,Km,[4],40 µM
same,carboxylesterase activity relative to the level of activity seen with F227A,[5],approximately 50%
same,CPT-11 conversion,[6]; HPLC assay,less than 1%
same,SN-38 formation from CPT-11 (in words),"[6]; HPLC, compared to mock or wild-type",did not show detectable levels of SN-38
B3,Km,[4],~7 µM
same,Km,[4]; listed as BChE variant 4-1,6.9 µM
same,fold increase in CPT-11 hydrolysis over wild-type BChE,[4],> 3000 fold
same,fold increase in CPT-11 hydrolysis over wild-type BChE,[4]; listed as BChE variant 4-1,> 3000 fold
same,fold increase in CPT-11 hydrolysis over wild-type BChE,[4]; listed as SEQ ID NO: 180,three thousand
same,fold improvement in the Km for CPT-11,[4],5-6 fold
same,fold improvement in the Km for CPT-11,[4]; listed as BChE variant 4-1,> 5 fold
B4,Km,[3],3.4 µM
same,"rate of CPT-11 conversion to SN38, fold higher than hCE-1",[3]; at pharmacologically relevant drug concentrations (˜1-10 μM),25-30 fold

# — patent US20080213281A1, “Butyrylcholinesterase Variants that Alter the Activity of Chemotherapeutic Agents” (priority 2002, published 2008)
